Laboratory results taken from EP4810057A1.

Target: SCB-1019T(A) (respiratory syncytial virus subtype A (A2 strain))
Assay: BLI, mAb on Protein A or AMC2 sensor, 1:1 fit

Substance	Kd [pM]	RLU(nm)	koff [s⁻¹]	kon [M⁻¹ s⁻¹]
AM14 (antibody)	382	0.693	5.67e-05	–
AM22 (antibody)	209	1.13	2.1e-05	–
D25 (antibody)	114	1.19	3.38e-05	296000
MPE8 (antibody)	< 1	0.59	< 1e-07	4.12e+06
hRSV90 (antibody)	< 1	0.928	< 1e-07	–

Target: WT-F-Trimer (respiratory syncytial virus, subtype not given)
Assay: BLI, mAb on Protein A or AMC2 sensor, 1:1 fit

Substance	RLU(nm)	Kd [pM]	koff [s⁻¹]	kon [M⁻¹ s⁻¹]
AM14 (antibody)	0	–	–	–
AM22 (antibody)	0.123	< 1	< 1e-07	–
D25 (antibody)	0.266	< 1	< 1e-07	12100
MPE8 (antibody)	0.0968	22100	0.000226	–
hRSV90 (antibody)	0.0884	12700	0.000271	21400

Target: commercial GSK vaccine F protein control
Assay: BLI, mAb on Protein A or AMC2 sensor, 1:1 fit

Substance	Kd [pM]	RLU(nm)	koff [s⁻¹]	kon [M⁻¹ s⁻¹]
AM14 (antibody)	484	1.34	0.000364	–
AM22 (antibody)	644	1.42	0.000196	304000
D25 (antibody)	221	1.11	0.000104	472000
MPE8 (antibody)	2220	0.815	0.000353	–
hRSV90 (antibody)	771	1.03	0.000218	282000

Target: SCB-1019T(B) (respiratory syncytial virus subtype B (Australian RSV B strain))
Assay: BLI, mAb on Protein A or AMC2 sensor, 1:1 fit

Substance	Kd [pM]	RLU(nm)	koff [s⁻¹]	kon [M⁻¹ s⁻¹]
AM14 (antibody)	200	0.534	4.43e-05	222000
AM22 (antibody)	495	1.1	3.99e-05	80700
D25 (antibody)	247	1.5	0.000112	–
MPE8 (antibody)	771	0.672	3.43e-05	–
hRSV90 (antibody)	1940	0.068	0.00153	788000
